Laboratory results from PMC2951365 (PLoS ONE, 2010).

Molecular target: T1, ubiquitin (Ub) (UniProt P0CG48 1-76)
T1 construct: ubiquitin, the mature 76-residue product of the polyubiquitin precursor; Used 15N-labelled or unlabelled; also called monoUb; 15N-labeled Ub; source: E. coli (pET-3a-Ub), purified (acetic acid denaturation, SP XL column, Superdex-75)
Test: NMR titration; 15N-Ub (~0.2 mM) titrated with increasing amount of GB1-tagged UIM peptides; 1H-15N HSQC; 20 mM phosphate, 100 mM NaCl, pH 6.5, 25°C; apparent KD from I13, K48 and L71 of Ub; for AT3-UIM12 a simplified 1:2 fit with the two UIM motifs binding Ub equally
Conditions: both partners purified

- Kd: > 3 mM
B1: GB1-fused AT3-UIM3 (residues 335-354) (domain or fragment)
chain: SEEDMLQAAVTMSLETVRND
modifications: GB1 carrier and C-terminal His6 left out. The template's polyQ length is not printed. The printed limits are applied to the 361-aa UIM3-containing form, where they span the whole UIM3 and correspond …
